Assays:
[1] = molecular target: T1, human IL-10R1 fused to an IgG Fc region, biotinylated (human, biotinylated (site not stated)); test: SPR (ProteOn XPR36, 25 C), about 770 RU biotinylated IL-10R1-Fc on NLC chip, his-tagged cytokine as analyte
T1 construct: also called hu IL-10R1; IL-10R1-Fc
Method: (§1) The SPR assay set-up is depicted in FIG. 15. About 770 RU of the biotinylated human IL-10R1 fused to an IgG Fc region (see SEQ ID NO: 87) were captured on the neutravidin-derivatized chip matrix of an NLC chip along vertical channels at a concentration of 30 μg/ml and a flow rate of 30 μl/min for a contact time or 240 s. Binding to huIL10R1 was measured at 5 different analyte concentrations (50, 10, 2, 0.4, 0.08 nM) by injections in horizontal orientation at 50 μl/min, recording the association rate for 180 s, the dissociation rate for 600 s. Running buffer (PBST) was injected along the sixth channel to provide an “in-line” blank for referencing. Association rates (kₒₙ) and dissociation rates (koff) were calculated using a simple 1:1 Langmuir binding model (ProteOn Manager software version 2.1) by simultaneously fitting the association and dissociation sensorgrams. The equilibrium dissociation constant (KD) was calculated as the ratio koff/kₒₙ. As human IL-10R1 could not be regenerated without a loss of activity, the subsequent steps of ligand capture and analyte injection were performed channel per channel using a freshly immobilized sensorchip surface for every interaction.
A decreased affinity to the IL-10R1 may represent a distinct advantage when targeting IL-10 to inflamed tissues through fusion with an antibody.

[2] = molecular target: T1, human IL-10R1 fused to an IgG Fc …; test: SPR, against IL-10 wild type
Method: as §1
A decreased affinity to the IL-10R1 may represent a distinct advantage when targeting IL-10 to inflamed tissues through fusion with an antibody. […]

T1 sequence (chain, as listed by the source limits assumed): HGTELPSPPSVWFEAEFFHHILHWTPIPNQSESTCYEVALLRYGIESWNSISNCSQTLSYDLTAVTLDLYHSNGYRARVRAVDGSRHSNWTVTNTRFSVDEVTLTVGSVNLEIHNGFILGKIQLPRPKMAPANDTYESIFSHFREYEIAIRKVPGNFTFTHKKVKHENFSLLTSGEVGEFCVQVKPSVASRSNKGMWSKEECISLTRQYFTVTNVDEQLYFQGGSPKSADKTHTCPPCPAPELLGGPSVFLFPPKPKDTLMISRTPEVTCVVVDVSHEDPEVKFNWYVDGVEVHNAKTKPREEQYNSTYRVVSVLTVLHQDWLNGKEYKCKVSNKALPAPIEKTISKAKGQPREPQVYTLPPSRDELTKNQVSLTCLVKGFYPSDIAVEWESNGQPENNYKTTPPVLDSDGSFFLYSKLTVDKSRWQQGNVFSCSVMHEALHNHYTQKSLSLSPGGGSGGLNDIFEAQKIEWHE

Row | Kd [1] [pM] | koff [1] [s⁻¹] | kon [1] [M⁻¹ s⁻¹] | fold reduction of affinity compared to IL-10 wild type [2] [fold] | Binder
1 | 476 | 0.000219 | 461000 | 10 | IL-10 (I87A)-his mutant cytokine (ligand, The entry already carries I87A; Purified as the dimeric cytokine; also called hu IL-10 (I87A)) SPGQGTQSENSCTHFPGNLPNMLRDLRDAFSRVKTFFQMKDQLDNLLLKESLLEDFKGYLGCQALSEMIQFYLEEVMPQAENQDPDAKAHVNSLGENLKTLRLRLRRCHRFLPCENKSKAVEQVKNAFNKLQEKGIYKAMSEFDIFINYIEAYMTMKIRNVDHHHHHH
2 | 80.7 | 0.000184 | 2.28e+06 | 2 | IL-10 (R24A)-his mutant cytokine (ligand, The entry already carries R24A; Purified as the dimeric cytokine; also called hu IL-10 (R24A)) SPGQGTQSENSCTHFPGNLPNMLADLRDAFSRVKTFFQMKDQLDNLLLKESLLEDFKGYLGCQALSEMIQFYLEEVMPQAENQDPDIKAHVNSLGENLKTLRLRLRRCHRFLPCENKSKAVEQVKNAFNKLQEKGIYKAMSEFDIFINYIEAYMTMKIRNVDHHHHHH

Source: patent US20150218244A1 (Hoffmann-La Roche, published 2015)
